Measurements published in patent publication US20210380703A1 (RIGEL PHARMACEUTICALS, published 2021).
Substitutions are numbered along the chain they refer to.

B1: 368_E02 (antibody, V domains shown)
VH: EVQLLESGGGLVQPGGSLRLSCAASGFTFDSYSMNWVRQAPGKGLEWVAGINYNSGYTSYADSVKGRFTISRDNSKNTLYLQMNSLRAEDTAVYYCARSANWHDTHLDYWGQGTLVTVSS
VL: DIQMTQSPSSLSASVGDRVTITCRASQSILTYLNWYQQKPGKAPKLLIYAATSRASGVPSRFSGSGSGTDFTLTISSLQPEDFATYYCQQSYSSPLTFGGGTKVEIK
B2: 368_H04 (antibody, V domains shown)
VH: B1 VH with D30S, T58K, S59G, R98K
VL: B1 VL with L30V, T31S, L33V, S93D
B3: 368_E07 (antibody, V domains shown)
VH: B1 VH with D30S, S33G, S55G, R98K, H106A
VL: B1 VL with T31S, A51V, S93E, S94N
B4: 368_E06 (antibody, V domains shown)
VH: B1 VH with D30S, S31D, S33G, N35H, A49S, S55G, S59G, H106A
VL: B1 VL with T31S, L47V, A50G, S93D
B5: 369_C02 (antibody, V domains shown)
VH: B1 VH with A49S, G50N, S55G, T58K, H106A
VL: B1 VL with L47V, S93E, S94L
B6: 368_G12 (antibody, V domains shown)
VH: B1 VH with D30S, S33G, G50S, S59G, H106A
VL: B1 VL with L30S, T31S, L33V, L47V, A51V, S93E, S94T
B7: 369_C04 (antibody, V domains shown)
VH: B1 VH with D30S, A49S, G50N, S55G, S59G, H106A
VL: B1 VL with L33V, A50T, A51T, R54L, A55H, S93N, S94N
B8: 369_A02 (antibody, V domains shown)
VH: B1 VH with D30S, S59G
VL: B1 VL with T31S, L33V, S93D, S94L
B9: 369_C03 (antibody, V domains shown)
VH: B1 VH with D30S, S33G, A49S, G50N, S55G, T58K, H106A
VL: B1 VL with L47V, S93D
B10: 368_E04 (antibody, V domains shown)
VH: B1 VH with D30S, G50N, S59G, H106A
VL: B1 VL with T31S, L33V, A55H, S93D, S94N
B11: 369_B01 (antibody, V domains shown)
VH: B1 VH with D30S, A49S, S55G, H106A
VL: B1 VL with T31S, A51V, S93E, S94N
B12: 368_F03 (antibody, V domains shown)
VH: B1 VH with S59G, R98K, H106A
VL: B1 VL with L30I, T31S, L47V, A55H, S93D
B13: 368_G01 (antibody, V domains shown)
VH: B1 VH with D30S, S31D, S33G, N35H, G50S, H106A
VL: B1 VL with L47V, S93N, S94L
B14: 368_F11 (antibody, V domains shown)
VH: B1 VH with D30S, S31D, S33G, A49S, S55G
VL: B1 VL with L30V, T31S, L33V, L47V, S93N, S94N

Legend:
Goat anti-Human Kappa = target: T1, Goat anti-Human Kappa; assay: ELISA, positive control
T1 construct: Positive control of the ELISA; also called biotinylated goat anti-human kappa light chain
Summary of the method: (§1)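 mAb binding by ELISA; antigens: hu ACVR2A, mu ACVR2A; pos ctrl biotinylated goat anti-hu kappa LC; neg ctrl hu Fc.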

Human ACVR2A = target: T2, Human ACVR2A (human, UniProt P27037 20-135, limits assumed); assay: ELISA
T2 construct: also called activin receptor, type II A
T2 sequence (P27037 20-135 limits assumed): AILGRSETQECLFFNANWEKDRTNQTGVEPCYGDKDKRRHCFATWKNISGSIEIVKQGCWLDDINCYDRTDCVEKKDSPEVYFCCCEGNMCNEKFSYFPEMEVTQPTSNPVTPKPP
Summary of the method: as §1

Mouse ACVR2A = Mouse ACVR2A (mouse, UniProt P27038 20-135, limits assumed); assay: ELISA
Mouse ACVR2A, sequence (P27038 20-135 limits assumed): as the sequence (P27037 20-135 limits assumed) above, with K20R, V73I counted along it
Summary of the method: as §1
Further: test concentration or dose not given here.

Binder | optical density (Goat anti-Human Kappa) [OD] | optical density (Human ACVR2A) [OD] | optical density (Mouse ACVR2A) [OD]
B1 | 3.68 | 2.5 | 2.79
B2 | 3.51 | 1.06 | 1.36
B3 | 3.45 | 1.07 | 1.17
B4 | 3.5 | 2.33 | 2.34
B5 | 3.54 | 3.6 | 3.52
B6 | 3.52 | 2.46 | 2.54
B7 | 2.46 | 1.64 | 1.65
B8 | 3.49 | 3.15 | 3.46
B9 | 3.52 | 3.37 | 3.65
B10 | 3.48 | 3.08 | 3.23
B11 | 3.59 | 3.36 | 3.46
B12 | 3.6 | 2.35 | 2.6
B13 | 3.62 | 2.65 | 2.82
B14 | 3.53 | 2.58 | 2.73
